Measured values taken from patent publication US8822187B1, “Polypeptides, nucleic acid molecules, and methods for synthesis of triterpenes” (University of Kentucky Research Foundation, priority 2011, dated 2014).

T1: Botryococcus braunii race B squalene synthase-like 1 (SSL-1), wild type, hexa-histidine tagged, SEQ ID NO: 2 (Botryococcus braunii, UniProt G0Y286)
T1 construct: FPP substrate with or without NADPH
T1 sequence (G0Y286 1-403): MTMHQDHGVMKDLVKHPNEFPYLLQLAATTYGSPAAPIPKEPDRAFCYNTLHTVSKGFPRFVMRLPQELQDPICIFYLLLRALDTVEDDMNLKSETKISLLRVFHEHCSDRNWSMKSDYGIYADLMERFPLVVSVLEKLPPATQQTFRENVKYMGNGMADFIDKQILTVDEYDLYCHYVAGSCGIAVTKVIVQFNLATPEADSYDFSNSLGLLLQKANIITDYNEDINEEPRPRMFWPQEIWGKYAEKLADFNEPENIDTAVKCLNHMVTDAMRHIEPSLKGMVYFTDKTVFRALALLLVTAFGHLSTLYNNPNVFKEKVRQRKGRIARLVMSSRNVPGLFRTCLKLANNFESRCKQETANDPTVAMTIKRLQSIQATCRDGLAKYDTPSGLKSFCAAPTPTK

B1: SSL-3: Botryococcus braunii race B squalene synthase-like 3 enzyme; converts PSPP to botryococcene (protein)
chain: MKLREVLQHPGEIIPLLQMMVMAYRRKRKPQDPNLAWCWETLIKVSRSYVLVIQQLPEVLQDPICVNYLVLRGLDTLQDDMAIPAEKRVPLLLDYYNHIGDITWKPPCGYGQYVELIEEYPRVTKEFLKLNKQDQQFITDMCMRLGAEMTVFLKRDVLTVPDLDLYAFTNNGPVAICLTKLWVDRKFADPKLLDREDLSGHMAMFLGKINVIRDIKEDVLEDPPRIWWPKEIWGKYLKDLRDIIKPEYQKEALACLNDILTDALRHIEPCLQYMEMVWDEGVFKFCAVPELMSLATISVCYNNPKVFTGVVKMRRGETAKLFLSVTNMPALYKSFSAIAEEMEAKCVREDPNFALTVKRLQDVQALCKAGLAKSNGKVSAKGA

How the values were obtained:
[1] = target: T1, Botryococcus braunii race B squalene synthase-like 1 (SSL-1), wild type, hexa-histidine tagged, SEQ ID NO: 2; experiment: Michaelis-Menten enzyme kinetics of the SSL-1 reaction (radiolabeled FPP to PSPP); assay type: biochemical
Protocol: FIG. 5 depicts Michaelis-Menten enzyme kinetics of the SSL-1 reaction. Enzyme assays (50 μl) were set up as described in the methods section with purified SSL-1 (0.2-1.0 μg), 0.1% triton X-100, ±2 mM NADPH, and the indicated concentration of ^3H-FPP. Assays were incubated for 15 min at 37° C. and stopped by addition of 50 μl 0.5 M EDTA. The reactions were then extracted 3× with 200 μl water saturated 1-butanol and pooled in a 4 ml glass screw cap vial. The butanol was evaporated with a stream of nitrogen gas and the white residue was resuspended in 2 ml of acid phosphatase solution (20% 1-propanol (v/v), 100 mM sodium acetate pH 4.7, 0.1% Triton X-100, 10 units sweet potato acid phosphatase) and incubated overnight (12-16 h) in a 28° C. shaker. […] The standards were visualized with iodine vapors and the zones corresponding to FOH (rf=0.65) and PSOH (rf=0.45) were scraped and analyzed by scintillation spectroscopy. […] The data was analyzed using the SigmaPlot Enzyme Kinetics 1.3 software. […]
Purification of the bacterial expressed enzymes was afforded by the amino-terminal hexa-histidine tag using His-Select Cobalt affinity gel (Sigma) columns according the manufacturer's recommendations. Recovery of proteins with the expected molecular sizes was determined by SDS-PAGE. […]

[2] = Secondary enzyme assays of SSL-3 or SSL-2 with PSPP versus FPP; assay type: biochemical; conditions: 2 mM NADPH, 1 μg enzyme, 37° C., 15 min
Protocol: Two primary enzyme assays (500 μl) were set up with 20 μg of purified SSL-1 or Nicotiana benthamiana squalene synthase (TSS) plus 40 μM ^3H-FPP. The assays were incubated at 37° C. for 1 h, then extracted 3× with 500 μl water saturated 1-butanol, pooled, and evaporated under a stream of nitrogen gas. The white residue was resuspended in 50 μl of 25 mM NH4HCO3 in 70% ethanol (v/v). An aliquot of the resuspension was analyzed by the acid phosphatase assay (described in supplemental FIG. 4) and shown to consist of 45% and 40% PSPP for the SSL-1 and TSS primary incubations, respectively. […] It was calculated that 1 μl of each resuspension contained ˜150 pmoles of 3H-PSPP. […] For comparison, enzyme assays were also set up containing 3 μM ^3H-FPP, 2 mM NADPH and either 1 μg each of SSL-1 plus SSL-3, or SSL-1 plus SSL-2. Additional control assays contained 5 μM ^3H-FPP, 2 mM NADPH, and either 1 μg of SSL-3 or SSL-2. The reactions were incubated at 37° C. for 15 min, stopped by addition of 50 μl 0.5 M EDTA, and extracted with 100 μl n-hexane. Aliquots of the hexane extracts, along with standards of squalene and botryococcene, were separated by silica TLC using n-hexane as the developing solvent. Standards were visualized with iodine vapors and the corresponding zones were analyzed by scintillation spectroscopy. […]

[3] = Purified bacterial-expressed enzymes incubated with FPP, products by GC-MS or TLC/scintillation counting; assay type: biochemical; conditions: FPP as substrate, enzyme assayed alone
Source text: (§1) FIG. 6 depicts the functional characterization of the squalene synthase-like genes of Botryococcus braunii race B. The squalene synthase-like genes, SSL-1, SSL-2 and SSL-3, were expressed in yeast separately (SSL-1 (B), SSL-2(C) or SSL-3(D)) or in combinations (SSL-1+SSL-2(E), SSL-1+SSL-3(F)) and the hexane extractable metabolites profiled by GC-MS. The chemical profile of yeast not engineered with any gene constructs serves as the background control (A). […] Data (J) represents mean±S.E.M. obtained from three independent experiments (n=3). The chromatograms (A-I) are also annotated for the elution behavior of botryococcene (1), squalene (2), presqualene alcohol (3) and bisfarnesyl ether (4).
The recombinant vectors were transformed into E. coli strain BL21(DE3) according to the manufacturer's recommendations (Novagen). The selected lines were grown with kanamycin selection at 37° C. with vigorous shaking until the cultures reached an optical density of ˜0.8 (OD600 nm), then expression of the corresponding SSL gene induced by addition of 0.5 mM isopropylthio-β-D-galactoside (IPTG) and the cultures incubate for an additional 3 to 20 h with shaking at room temperature. One hundred ml of the culture was subject to centrifugation at 4,000 g for 10 min, the pelleted cells resuspended in 10 ml of lysis buffer containing 50 mM NaH2PO4, pH 7.8, 300 mM NaCl, 10 mM imidazole, 1 mM MgCl2, 1 mM PMSF, 1% glycerol (v/v), then sonicated 4× for 10 sec with a microprobe sonicator at 60% maximum power. The samples were cooled on ice for 2 min between sonication treatments. The sonicate was centrifuged at 16,000 g for 10 min at 4° C. and the supernatant used for purification of the hexa-histidine tagged enzymes.
Purification of the bacterial expressed enzymes was afforded by the amino-terminal hexa-histidine tag using His-Select Cobalt affinity gel (Sigma) columns according the manufacturer's recommendations. Recovery of proteins with the expected molecular sizes was determined by SDS-PAGE. The purified protein fractions were concentrated using Amicon Ultra (0.5 ml, 10K) centrifugation filter units and stored in 300 mM NaCl, 20 mM Tris-HCl pH 7.5, 5 mM dithiothreitol, 2 mM MgCL2, 50% glycerol (v/v) at −20° C. for 2-3 weeks without noticeable loss of activity.
Typical enzyme assays were initiated by mixing aliquots of purified enzyme with 50 mM Mops, pH 7.3, 20 mM MgCl2, 2.5 mM 2-mercaptoethanol, 10 μM [1-^3H]-FPP (˜2×10^5 dpm total), and 2 mM NADPH in total reaction volume of 50 μl. Reactions were incubated at 37° C. for 1 h and then extracted with 100 μl n-hexane or 100 ul MTBE. Forty μl of the n-hexane or MTBE extract was then spotted onto silica TLC plates with authentic standards of botryococcene and squalene and developed with n-hexane, or standards of bisfarnesyl ether and developed with n-hexane:MTBE, 25:1. The standards were visualized with iodine vapors and TLC zones corresponding to the standards were scrapped and analyzed by scintillation spectrometry. If Botryococcus lysate was added to enzyme assays, typically 5 μl of lysate (corresponding to 10 μg total protein) prepared from B. braunii cells according to Okada et al. (1) was added. […] Extracts were resuspended in 50 μl hexane and an aliquot analyzed by GC-MS with a Varian CP-3800 GC coupled to a Varian Saturn 2200 MS/MS (Varian Medical Systems) using a Supelco SLB-5 ms fused silica capillary column (30 m×0.25 mm×0.25 μM film thickness, Supelco). […]

TN7 yeast line = experiment: Expression of SSL genes in TN7 yeast line, hexane extractable metabolites by GC-MS; assay type: cell-based; conditions: gene expressed separately in yeast
Source text: as §1
FIG. 10 includes a comparison of botryococcene production in yeast engineered with different configurations of SSL-1 and SSL-3. Yeast line TN7 was engineered with the SSL-1 and SSL-3 genes on separate plasmids (squares), with gene fusions (SSL-1 fused to SSL-3 via a triplet repeat of GGSG (triangles), or vice versa (diamonds)), or with 63 or 71 amino acids of the carboxy terminus of the Botryococcus squalene synthase, sequences containing a membrane spanning domain, appended to the carboxy termini of the SSL-1 and SSL-3 enzymes, respectively (circles). The data represents mean±S.E.M.
The various recombinant yeast expression vectors were introduced into the TN7 yeast line via lithium acetate transformation, followed by selection for uracil and leucine auoxtrophic growth (Takahashi, et al. (2007)). […] Individual colonies of TN7 and the various TN7-transformants were subsequently grown in 25 ml of YPDE (nutrient rich) or Yeast Synthetic Drop-out medium (selection) for the indicated time at 25° C. before analyzing the cultures for production of novel triterpene components. In brief, 1 ml aliquots of the culture were combined with 1 ml of acetone, vigorously mixed, and incubated at room temperature for 10 min. One ml of hexane was added and mixed vigorously for 60 sec. […] The dried extract was resuspended in 50-500 μl of n-hexane and a 1 μl aliquot analyzed by GC-MS as described above. […]

Molecule | stimulation of activity by NADPH addition ([1]; NADPH addition, radiolabeled FPP substrate) | effect of NADPH addition on enzyme activity (difference) ([1]; ±2 mM NADPH, 3H-FPP substrate, 15 min at 37° C.) | biosynthesis from PSPP versus FPP [2] | squalene or botryococcene biosynthesis by purified enzyme in vitro [3] | products accumulating in yeast (TN7 yeast line)
NC(=O)C1=CN([C@@H]2O[C@H](COP(=O)(O)OP(=O)(O)OC[C@H]3O[C@@H](n4cnc5c(N)ncnc54)[C@H](OP(=O)(O)O)[C@@H]3O)[C@@H](O)[C@H]2O)C=CC1 [NADPH] | no stimulation | less than 4% |  |  | 
B1 |  |  | efficiently catalyze the biosynthesis of squalene and botryococcene, respectively, from PSPP but not FPP | neither bacterial-expressed, purified enzymes exhibited any botryococcene biosynthesis | did not cause the accumulation of any distinct products
